Source: publication PMC7810988 (2019)

Biological target: T1, OsSPX4^1–321 (rice, UniProt Q10B79 1-320)
T1 chain: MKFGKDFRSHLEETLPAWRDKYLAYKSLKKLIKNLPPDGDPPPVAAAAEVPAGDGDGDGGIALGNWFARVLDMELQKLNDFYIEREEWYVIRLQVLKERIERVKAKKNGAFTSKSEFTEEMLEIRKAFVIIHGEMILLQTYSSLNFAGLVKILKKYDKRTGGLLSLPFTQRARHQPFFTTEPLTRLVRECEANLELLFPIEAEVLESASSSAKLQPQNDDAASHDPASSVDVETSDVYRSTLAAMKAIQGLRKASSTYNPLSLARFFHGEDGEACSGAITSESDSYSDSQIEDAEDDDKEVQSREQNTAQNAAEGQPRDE
Assay: ITC; 5PP-InsP5 (InsP7) 100 uM

Kd: 3.05 µM
B1: full-length OsPHR2 (OsPHR2^1-426, wild type) (natural protein)
chain: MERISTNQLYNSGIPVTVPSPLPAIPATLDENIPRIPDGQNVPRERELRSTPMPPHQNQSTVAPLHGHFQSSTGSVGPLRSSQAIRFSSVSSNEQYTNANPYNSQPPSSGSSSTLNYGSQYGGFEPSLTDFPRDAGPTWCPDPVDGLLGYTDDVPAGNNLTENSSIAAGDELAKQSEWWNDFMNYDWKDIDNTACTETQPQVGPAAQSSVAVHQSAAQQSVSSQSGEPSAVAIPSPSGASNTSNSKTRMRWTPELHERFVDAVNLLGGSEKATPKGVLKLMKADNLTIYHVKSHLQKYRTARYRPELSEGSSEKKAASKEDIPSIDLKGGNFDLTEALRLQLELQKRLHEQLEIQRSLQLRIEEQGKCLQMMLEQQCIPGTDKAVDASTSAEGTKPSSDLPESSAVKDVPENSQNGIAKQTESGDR
